These results are taken from US20160326232A1 (Janssen / Centocor, published 2016).

Assay [1] has as its target T1, chimpanzee PSMA extracellular domain with 6His and Avi tag (PSMW8), biotinylated (chimpanzee, UniProt Q04609 44-750 (human entry), biotinylated ; Biotinylated, presumably on the Avi tag, which is not in the letters. Glycosylated (expressed in HEK cells). PSMA forms a homodimer; one subunit is given.).
T1 construct: Expressed in 293HEK-expi cells; buffer with ZnCl2 to stabilize PSMA dimerization; also called chimp PSMA; Pan troglodytes PSMA
T1 chain: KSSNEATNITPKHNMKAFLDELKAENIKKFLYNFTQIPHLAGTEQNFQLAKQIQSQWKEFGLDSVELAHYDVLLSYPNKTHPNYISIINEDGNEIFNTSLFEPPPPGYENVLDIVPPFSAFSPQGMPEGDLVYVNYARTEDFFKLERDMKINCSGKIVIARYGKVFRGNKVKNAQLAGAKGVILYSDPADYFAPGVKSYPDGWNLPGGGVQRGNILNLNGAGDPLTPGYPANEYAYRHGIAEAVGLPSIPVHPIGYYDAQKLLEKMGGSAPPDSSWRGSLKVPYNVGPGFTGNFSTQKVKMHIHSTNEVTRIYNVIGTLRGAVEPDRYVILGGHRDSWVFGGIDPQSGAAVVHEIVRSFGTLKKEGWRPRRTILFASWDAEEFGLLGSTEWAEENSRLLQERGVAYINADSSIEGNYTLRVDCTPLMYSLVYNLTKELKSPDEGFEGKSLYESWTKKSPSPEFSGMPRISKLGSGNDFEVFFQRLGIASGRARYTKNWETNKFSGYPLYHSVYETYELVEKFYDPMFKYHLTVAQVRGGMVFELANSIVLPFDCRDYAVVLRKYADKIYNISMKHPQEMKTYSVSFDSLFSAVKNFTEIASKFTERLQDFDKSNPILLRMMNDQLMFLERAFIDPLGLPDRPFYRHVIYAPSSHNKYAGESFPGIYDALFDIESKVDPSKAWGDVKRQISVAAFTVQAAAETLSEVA
Put plainly: hit of CIS-display panning and ELISA screen on biotinylated PSMA (same antigen as in panning; signal at least 10-fold above background); column Antigen species. The protocol:
(§1) Neutravidin-coated plates were blocked for 1 h in Starting Block T20 (Pierce) and then coated with biotinylated PSMA (using same antigen as in panning) or negative control for 1 h. Plates were rinsed with TBST and diluted lysate was applied to plates for 1 h. Following additional rinses, wells were treated with HRP-conjugated anti-Centyrin antibody (PAB25) for 1 h and then assayed with POD (Roche). Centyrins with signals at least 10-fold above background were selected for further analysis.

Assay [2] concerns the target T2, cynomolgus monkey PSMA extracellular domain with 6His and Avi tag (PSMW1), biotinylated (cynomolgus monkey, UniProt Q04609 44-750 (human entry), biotinylated ; Biotinylated, presumably on the Avi tag, which is not in the letters. Glycosylated (expressed in HEK cells). PSMA forms a homodimer; one subunit is given.).
T2 construct: Expressed in 293HEK-expi cells; buffer with ZnCl2 to stabilize PSMA dimerization; A cyno PSMA-Fc fusion was also used in some plate-based pannings; also called cyno PSMA; Macaca Fascicularis PSMA
T2 chain: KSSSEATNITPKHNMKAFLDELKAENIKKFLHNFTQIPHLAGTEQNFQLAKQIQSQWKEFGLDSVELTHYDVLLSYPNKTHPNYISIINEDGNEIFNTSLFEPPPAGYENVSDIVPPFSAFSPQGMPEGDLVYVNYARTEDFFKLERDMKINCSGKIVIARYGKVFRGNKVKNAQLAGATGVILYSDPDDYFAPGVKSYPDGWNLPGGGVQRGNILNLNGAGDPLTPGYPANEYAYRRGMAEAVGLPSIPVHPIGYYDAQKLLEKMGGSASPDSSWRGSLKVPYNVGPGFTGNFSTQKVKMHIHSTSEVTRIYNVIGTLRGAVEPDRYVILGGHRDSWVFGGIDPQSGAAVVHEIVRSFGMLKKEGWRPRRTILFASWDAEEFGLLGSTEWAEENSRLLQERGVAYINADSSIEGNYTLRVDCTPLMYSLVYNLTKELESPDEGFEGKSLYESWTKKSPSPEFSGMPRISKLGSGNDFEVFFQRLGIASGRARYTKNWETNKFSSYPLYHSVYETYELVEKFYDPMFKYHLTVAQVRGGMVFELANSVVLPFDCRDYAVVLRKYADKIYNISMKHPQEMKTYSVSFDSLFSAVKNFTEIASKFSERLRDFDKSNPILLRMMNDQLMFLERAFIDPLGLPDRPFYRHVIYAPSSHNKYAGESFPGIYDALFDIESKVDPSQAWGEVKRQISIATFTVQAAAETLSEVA
The description is as above. The procedure: as §1

Positions count from the first letter of the chain named.

B1: P229CR5P819_H11 (designed binder)
chain: LPAPKNLVVSRVTEDSARLSWDIDEQRDWFDSFLIQYQESEKVGEAIVLTVPGSERSYDLTGLKPGTEYTVSIYGVYHVYRSSNPLSAIFTT
notes: FN3 domain (Centyrin), unconjugated, as screened from E. coli lysate; also called P229CR9P819-H11; not shown: C-terminal poly-histidine tag
Take B1: in assay [1], the binding result was “binds”.

B2: P234CR9_H01 (designed binder)
chain: LPAPKNLVVSRVTEDSARLSWEWWVIPGDFDSFLIQYQESEKVGEAIVLTVPGSERSYDLTGLKPGTEYTVSIYGVVNSGQWNDTSNPLSAIFTT
notes: FN3 domain (Centyrin), unconjugated, as screened from E. coli lysate; not shown: C-terminal poly-histidine tag
B2: the binding result in assay [2] is recorded as “binds”.

B3: P234CR9_A7 (designed binder)
chain: LPAPKNLVVSRVTEDSARLSWGEQFTIFDSFLIQYQESEKVGEAIVLTVPGSERSYDLTGLKPGTEYTVSIYGASGYEWFHAFGSSNPLSAIFTT
notes: FN3 domain (Centyrin), unconjugated, as screened from E. coli lysate; also called P234CR9_A07; not shown: C-terminal poly-histidine tag
For the molecule B3, the binding result in assay [2] is “binds”.

B4: His-tagged P233FR9-H10 centyrin (designed binder)
chain: LPAPKNLVVSRVTEDSARLSWTAPDAAFDSFAIGYWEWDDDGEAIVLTVPGSERSYDLTGLKPGTEYPVYIAGVKGGQWSFPLSAIFTT
notes: FN3 domain (Centyrin), unconjugated; used in the screen and in the crystal structure with cynoPSMA; also called H10 FN3 domain; P233FR9_10; not shown: C-terminal His-tag
In the case of B4, the binding result in assay [1] is “binds”.

B5: P233FR9P1001_D9 (designed binder)
chain: B4 chain with A32P, P68W
notes: as for B2
Take B5: the binding result in assay [1] is “binds”.

B6: P233FR9P1001_H3-1 (designed binder)
chain: B4 chain with A32P, P68H
notes: as for B2
In the case of B6, the binding result in assay [1] is recorded as “binds”.

B7: P233FR9P1001_B5-5 (designed binder)
chain: B4 chain with A32T
notes: as for B2
As for B7, in assay [1], the binding result is listed as “binds”.

B8: P258AR6P1070_A05 (designed binder)
chain: LPAPKNLVVSRVTEDSARLSWTIDEQRDWFDSFLIQYQESEKVGEAIVLTVPGSERSYDLTGLKPGTEYTVSIYGVYHVYRSNPLSAIFTT
notes: as for B2
Consider B8, for which the binding result in assay [2] is “binds”.

B9: P258AR6P1071_G03 (designed binder)
chain: B8 chain with T22D
notes: as for B2
B9: the binding result in assay [2] is “binds”.

B10: P258AR6P1071_F04 (designed binder)
chain: B8 chain with T22V
notes: as for B2
On to B10, for which the binding result in assay [2] is on record as “binds”.

B11: P258AR6P1070_F09 (designed binder)
chain: B8 chain with D31E
notes: as for B2
B11: the binding result in assay [2] is recorded as “binds”.

B12: P258AR6P1071_D02 (designed binder)
chain: B8 chain with T22A, D31E
notes: as for B2
Turning to B12, the binding result in assay [2] is given as “binds”.
